Measurements published in patent publication US20050037969A1 (ARBOR VITA, published 2005).
Ends that are not written are not given here. * marks the point of attachment. Biotin = O=C1N[C@H]2[C@H](CS[C@H]2CCCCC(=O)*)N1

Experiments:
Test in all cases: A/G assays
[1] = target: T1, K559 PDZ-GST fusion protein (Homo sapiens (Human), UniProt Q9Y6V0 4489-4593)
T1 construct: Order of GST and PDZ part and limits not seen in the excerpts
T1 sequence: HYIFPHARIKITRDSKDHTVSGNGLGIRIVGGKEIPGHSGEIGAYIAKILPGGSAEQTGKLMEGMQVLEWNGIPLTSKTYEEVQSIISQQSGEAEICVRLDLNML

[2] = target: T2, GEF PDZ-GST fusion protein (Homo sapiens (Human), UniProt Q8TEU7 293-400)
T2 construct: The label GEF is not explained in the excerpts
T2 sequence: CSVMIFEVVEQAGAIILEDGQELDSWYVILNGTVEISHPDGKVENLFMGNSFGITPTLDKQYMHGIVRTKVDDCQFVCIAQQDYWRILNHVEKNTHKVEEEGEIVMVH

[3] = target: T3, GST-cytohesin binding protein PDZ domain fusion protein (Homo sapiens (Human), UniProt O60759 74-165)
T3 construct: also called CBP; not shown: glutathione S-transferase encoded by vector pGEX-3X (Pharmacia)
T3 sequence: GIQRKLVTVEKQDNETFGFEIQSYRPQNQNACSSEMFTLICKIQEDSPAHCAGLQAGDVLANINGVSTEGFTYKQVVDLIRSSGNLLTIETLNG

[4] = target: T4, GST-DVL1 PDZ domain fusion protein (human, UniProt O14640 247-339)
T4 construct: also called human dishevelled segment polarity protein homolog; not shown: glutathione S-transferase encoded by vector pGEX-3X (Pharmacia)
T4 sequence: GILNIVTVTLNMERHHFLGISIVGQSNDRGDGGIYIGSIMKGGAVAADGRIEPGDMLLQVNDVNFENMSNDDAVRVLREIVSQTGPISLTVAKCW

[5] = target: T5, GST-KIAA0303 PDZ domain fusion protein (Homo sapiens (Human), UniProt O15021 1138-1228)
T5 construct: also called K303; not shown: glutathione S-transferase encoded by vector pGEX-3X (Pharmacia)
T5 sequence: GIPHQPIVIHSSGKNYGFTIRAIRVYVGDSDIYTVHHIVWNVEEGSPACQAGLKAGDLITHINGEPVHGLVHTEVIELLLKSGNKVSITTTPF

[6] = target: T6, TAX-IP33 PDZ-GST fusion protein (Homo sapiens (Human), UniProt O14910 103-193)
T6 construct: Order of GST and PDZ part and limits not seen in the excerpts
T6 sequence: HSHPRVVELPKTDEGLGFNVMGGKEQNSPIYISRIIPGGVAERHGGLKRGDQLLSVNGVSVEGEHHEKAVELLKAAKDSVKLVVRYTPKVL

[7] = target: T7, GST-DLG5 (p-dlg) PDZ domain fusion protein (Human, UniProt Q8TDM6 1343-1583)
T7 construct: also called Human discs large protein p-dlg; not shown: glutathione S-transferase encoded by vector pGEX-3X (Pharmacia)
T7 sequence: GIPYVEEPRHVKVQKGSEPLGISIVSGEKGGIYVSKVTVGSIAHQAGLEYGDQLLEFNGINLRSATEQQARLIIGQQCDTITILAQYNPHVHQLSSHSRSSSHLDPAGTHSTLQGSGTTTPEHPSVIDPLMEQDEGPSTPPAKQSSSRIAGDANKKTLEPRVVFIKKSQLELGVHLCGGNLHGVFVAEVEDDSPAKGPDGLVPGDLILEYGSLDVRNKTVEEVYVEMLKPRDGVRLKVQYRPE

[8] = target: T8, GST-TAX-IP2 PDZ domain fusion protein (human, UniProt O14908 129-216)
T8 construct: also called TAX-1P2; TAX2; not shown: glutathione S-transferase encoded by vector pGEX-3X (Pharmacia)
T8 chain: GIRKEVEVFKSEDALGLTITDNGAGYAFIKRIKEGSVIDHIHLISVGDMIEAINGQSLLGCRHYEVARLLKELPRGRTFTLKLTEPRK

[9] = target: T9, GST-TAX-IP40 PDZ domain fusion protein (human, UniProt Q6B4M5 150-252 (rat entry))
T9 construct: also called TAX40; not shown: glutathione S-transferase encoded by vector pGEX-3X (Pharmacia)
T9 sequence: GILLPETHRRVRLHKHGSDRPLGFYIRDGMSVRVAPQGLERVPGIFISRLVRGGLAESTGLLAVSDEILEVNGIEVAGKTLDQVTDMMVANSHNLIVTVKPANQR

[10] = target: T10, SP short PDZ-GST fusion protein (Homo sapiens (Human), UniProt O43464 350-435)
T10 construct: The label SP short is not explained in the excerpts
T10 sequence: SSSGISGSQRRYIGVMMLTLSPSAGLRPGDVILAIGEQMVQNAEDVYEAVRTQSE

[11] = target: T11, GST-CASK PDZ domain fusion protein (Homo sapiens, UniProt O14936 486-575)
T11 construct: also called Homo sapiens CASK protein
T11 sequence: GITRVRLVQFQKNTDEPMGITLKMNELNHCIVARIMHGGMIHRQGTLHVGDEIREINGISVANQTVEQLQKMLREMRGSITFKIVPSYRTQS

[12] = target: T12, X11β PDZ-GST fusion protein (Rattus norvegicus (Rat), UniProt O35431 560-745)
T12 construct: Order of GST and PDZ part and limits not seen in the excerpts
T12 chain: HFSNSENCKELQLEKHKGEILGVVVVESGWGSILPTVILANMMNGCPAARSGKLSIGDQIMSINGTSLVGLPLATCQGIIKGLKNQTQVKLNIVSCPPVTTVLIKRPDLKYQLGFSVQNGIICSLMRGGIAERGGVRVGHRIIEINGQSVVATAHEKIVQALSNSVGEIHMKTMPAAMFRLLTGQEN

[13] = target: T13, GST-mouse syntenin fusion protein (Mus musculus, UniProt O08992 108-286)
T13 construct: also called Mus musculus Syntenin; not shown: glutathione S-transferase encoded by vector pGEX-3X (Pharmacia)
T13 chain: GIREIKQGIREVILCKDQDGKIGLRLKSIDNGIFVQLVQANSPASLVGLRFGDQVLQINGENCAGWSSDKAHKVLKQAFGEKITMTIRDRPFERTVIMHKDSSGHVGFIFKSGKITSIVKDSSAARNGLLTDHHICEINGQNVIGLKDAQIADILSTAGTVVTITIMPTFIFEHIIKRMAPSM

[14] = target: T14, GST-LIM protein PDZ domain fusion protein (Human, UniProt Q96HC4 2-85)
T14 construct: also called Human LIM protein; not shown: glutathione S-transferase encoded by vector pGEX-3X (Pharmacia)
T14 sequence: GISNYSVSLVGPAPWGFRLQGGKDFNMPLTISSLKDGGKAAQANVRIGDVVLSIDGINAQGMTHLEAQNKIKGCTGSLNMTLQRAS

Measured: binding result

Biotin-STNHSIGSTQSTPCSTSSMA (also called CD105 (endoglin)) [CD105 C-terminal peptide AA16L, biotinylated]
not listed: [14]
no binding: all other assays above

B1: Spectrin (beta) C-terminal peptide AA32L, biotinylated (peptide)
peptide: Biotin-SFPPCGHRENVPGQSLVSFV
notes: Marked (S), sticky; also called Spectrin beta (S); Spectrin β
not listed: [2] | [3] | [5] | [6] | [7]
no binding: all other assays above

B2: CD138 C-terminal peptide AA18L, biotinylated (peptide)
peptide: Biotin-PKQANGGAYQKPTKQEEFYA
notes: also called CD138 (syndecan-1); CD138 (syndecan)
not listed: [11] | [13]
no binding: all other assays above

B3: CDw137 (4-1BB ILA) C-terminal peptide AA21L (peptide)
peptide: Biotin-QEEDGCSCRFPEEEEGGCEL
modifications: cysteine pairing not given here
notes: Marked (S), sticky peptide with high background; also called CDw137 (4-1BB ILA) (S)
not listed: [1] | [2] | [6] | [10]
no binding: all other assays above

Biotin-TREDIYVNYPTFSRRPKTRV [DNAM-1 C-terminal peptide AA22L, biotinylated]
not listed: [14]
no binding: all other assays above

B4: V-gated Ca2+ channel C-terminal peptide AA46L (peptide)
peptide: Biotin-SSGGRARHSYHHPDQDHWC
notes: Marked (S), sticky peptide with high background; also called V-gated Ca2+ channel (S)
not listed: [2] | [6] | [10]
no binding: all other assays above

Biotin-QFMTADETRNLQNVDMKIGV (also called CD44 (long form)) [CD44 C-terminal peptide AA9L, biotinylated]
not listed: [13]
no binding: all other assays above

Biotin-ARKANMKGSYSLVEAQKSKV (also called CD106) [VCAM1 C-terminal peptide AA17L, biotinylated]
not listed: [5]
no binding: all other assays above

Biotin-TTNNNPNSAVNIKKIFTDV [KV1.3 C-terminal peptide AA33L, biotinylated]
not listed: [4]
no binding: all other assays above
